Measured values taken from the supplement of paper PMC9170038.

Test system: MS2 coat protein
Assay: apparent KD of MS2 coat protein; designed switch direction (-1 OFF switch, 1 ON switch): -1; higher = weaker reporter binding
Outline: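 Transcription of designed RNA switches on Illumina chips was done by stalled E. coli RNA polymerase. SNAP-549-labelled MS2 coat protein was then titrated in doubling steps from 0.7 or 1.5 nM to 3 µM, with steps of 0.8–1.5 h at the lowest and 10–20 min at the highest concentration. The per-design median over clusters of curve-fitted normalised fluorescence is reported as apparent KD.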

[1] = input ligand: microRNA oligo, concentration not stated
[2] = Eterna round: R95, input ligand: microRNA oligo, concentration not stated
[3] = Eterna round: R95, input ligand: FMN 200 uM
[4] = Eterna round: R95, input ligand: none

Sequence	apparent KD of MS2 coat protein (input ligand: FMN 200 uM) [nM]	apparent KD of MS2 coat protein (input ligand: none) [nM]	apparent KD of MS2 coat protein [1] [nM]	apparent KD of MS2 coat protein [2] [nM]	apparent KD of MS2 coat protein [3] [nM]	apparent KD of MS2 coat protein [4] [nM]
CUUAUGUGAGGAUAUGCCUGGCCGUGAGGCCAAAUUUAUAAGCAGAAGGCACAUGAGGAUCACCCAUGUGCGGG [jl-ex4-4.69 ViennaUCT mod] (Eterna round: R97, puzzle: Exclusion 4)	115	317				
AAUAAUCAUGUAGGAUAUGCGUGGCAAAGCUAUGCAGAAGGACAUGAGGAUCACCCAUGUUCUAGCGUCUGCGUACAGAUGCUA [Mat - Exclusion NG 1 - Mod of JL - D80] (Eterna round: R96, puzzle: Exclusion NG 1)	246	37.2	29.1			
UCAUGUUUAGAGGAUAUGAUUACUUUUGAGUAAUCAGAAGGCUAGACAUGAGGAUCACCCAUGUCAUAACAUGA [Exclusion 6 - B - 15:d] (Eterna round: R96, puzzle: Exclusion 6)	341	242	75.9			
GGUCCACGAGGAUAUCGAUUAUAGUACAUGAGGAUCACCCAUGUUGUCCAGGUUUCGUUUCGAGAAGGCGUGGGUU [LRO-Ex5-01] (puzzle: Exclusion 5)				88.1		
ACGCGUGGCUAGGAUAUGCAGCUAUCUGGCCAGGCAGAAGGAGCCACAUGAGGAUCACCCAUGUGGUGAUCCUC [eternacac ex6r4 sub3] (Eterna round: R97, puzzle: Exclusion 6)	12.1	11.9				
UUUUAGUCAGGAUAUACAUGAGGAUCACCCAUGUAAAAUUUUAAUUUAAUUUGAAGGUGUAGAAGGGACAAUUU [Ex3 #39] (Eterna round: R97, puzzle: Exclusion 3)	22.7	35.8				
ACUCGACAUGAGGAUCACCCAUGUGAGGAUAUGGCCUGUAUGGCGUGAGCUGGCUAAAUCAGAAGGCGCGUGGG [salish99_ex1_r4_049] (Eterna round: R97, puzzle: Exclusion 1)	222	194				
CAUUCACAUGAGGAUCACCCAUGUCAGGAUAUAGUCGAUAUAUGGAAACAUAUAUCGACUAGAAGGGACUAGCG [Jieuxxlusion 13 - Jieux - Exclusion 1] (Eterna round: R97, puzzle: Exclusion 1)	152	52.6				
GCCGAUUAAGUGAGGAUAUACCUAUGGAUACAUAGGUAGAAGGCACAUGAGGAUCACCCAUGUUCCUUAACGGC [Fiskers BMX 4 - 7] (puzzle: Brourd's mod of Exclusion 4)				10.5		
UCGGCGCGAGGAUAUACGUUUGCGCGUUUUCGUUUGCGCGUACAUGAGGAUCACCCAUGUAGAAGGCGCGCCGC [Apr-15 SS2-14] (puzzle: Exclusion 2)				13.2		
UUUUUUUUGCUGGUUUUUUACAUGAGGAUCACCCAUGUCCUCUGCUUGUCUUGUGUUGUGCUGGUUUCUGGUGCGGC [Revision to "-18.4 -40.2 kcal, A 8%"by Sellena] (Eterna round: R97, puzzle: Sensor, turn-off variant 1)	428	1210				
AAUAACAAGCCGAUCCUUCACAUGAGGAUCACCCAUGUGUUCGUCUUGUAAAGUACUAUCACGAAAGUGAUAGUACA (Eterna round: R97, puzzle: Sensor, turn-off variant 1)	18	19.1				
UUUUAGUCAGGAUAUACAUGAGGAUCACCCAUGUAAAAUUUUAAUUUAAUUUUAAGGUGUAGAAGGGACCACCC [Ex3 #14] (Eterna round: R97, puzzle: Exclusion 3)	31.2	35.5				
UAAACCAGAGGAUAUGCGAAUAAAUAAAACUUUUUUUUUUAACAUGAGGAUCACCCAUGUAGAAGGCUGCAAUU [Ex2 #32] (Eterna round: R97, puzzle: Exclusion 2)	30.4	30				
AAUUCACAUGAGGAUCACCCAUGUGAGGAUAUGGAUUCGCUGGCCGUAGCCAGUGGAUCCAGAAGGCGCGUGAU [JL-ex1-4.27] (Eterna round: R97, puzzle: Exclusion 1)	60.5	46.8				
UAAACAAGCUAAAGAUUCUACAUGAGGAUCACCCAUGUGCUCGUCUUAUAAGGUACUGUGACGAAAGUCACGGUACC [JL TOV1 3.07] (Eterna round: R97, puzzle: Sensor, turn-off variant 1)	17.9	21.1				
AGAGUGGUGCGAGGAUAUACAUGAGGAUCACCCAUGUAAACGUGUGAGGCAAAGCCUCACACGAUGUAGAAGGCGCACUACUCA [Mat - Exclusion NG 2 - Mod of JL - D15] (Eterna round: R96, puzzle: Exclusion NG 2)	17.3	15.8	9.9			

Sequence	apparent KD of MS2 coat protein (input ligand: FMN 200 uM) [nM]	apparent KD of MS2 coat protein (input ligand: none) [nM]	apparent KD of MS2 coat protein [1] [nM]	apparent KD of MS2 coat protein [2] [nM]	apparent KD of MS2 coat protein [3] [nM]	apparent KD of MS2 coat protein [4] [nM]
GAGUAGUGAGGAUAUGCAAUGAUCAUCGUACGAUGAGGCUGACAUGAGGAUCACCCAUGUAGAAGGCGCUGAUC [EX2 #18] (Eterna round: R97, puzzle: Exclusion 2)	57.3	75.2				
UAAAGUAUAUAGGAUAUCUAGCUGGAAACAGCUAGAGAAGGAUGUACAUGAGGAUCACCCAUGUAAAUCGUGAA [Ex6/13-A1] (Eterna round: R97, puzzle: Exclusion 6)	16.2	13				
GCGGAGUCGAUCGUGAGAUCGGAGACAUGAGGAUCACCCAUGUAGGAUAUCGAUUGCUUUGCAGUCGAGAAGGGCGUGCUCCGC [JL denovo 18] (Eterna round: R96, puzzle: Exclusion NG 3)	19.9	22.9	18.6			
GCUUUUCUUUUCCUUUCUUACAUGAGGAUCACCCAUGUUUCUUGUCGUGCUCGCGUUGUUCGUCUGUCUGUCUGUUG [salish99_TOv1_r3_081] (puzzle: Sensor v3, turn-off variant 1)				35.5	37.4	47.6
AUAUUUAAUAUAGGAUAUAGGAAGAAUGAUGAACUAGAAGGAUAACAUACAUGAGGAUCACCCAUGUCCCAUGUGAUCACCCAU [Seems to work in some way] (Eterna round: R96, puzzle: Exclusion NG 1)			257			
UUAAAUCAUGUAGGAUAUGCGUGGCGAAGCUAUGCAGAAGGACAUGAGGAUCACCCAUGUGCUAGCGUCCGCGUACGGAUGCAA [JL ENG1 1.21] (Eterna round: R96, puzzle: Exclusion NG 1)	131	62	57.1			
GGUGGACAUGAGGAUCACCCAUGUGAGGAUAUCGGCCGGCUAGUGGUGGCUGGCUUCUCGAGAAGGCGCAUAGU [Exclusion 1 V76] (puzzle: Exclusion 1)				46.8		
AAUGAUUGACGAGGAUAUUGUGGUGAAACACGACGAGAAGGCGUAUGUCACAUGAGGAUCACCCAUGUGAGCUUUGUGGAUAUA [Ex NG1 #68] (Eterna round: R96, puzzle: Exclusion NG 1)	34.7	34.1	24.1			
CGAUGUUAUGUCAGGAUAUACAUUGCGAAAGCAAUGUAGAAGGGACAUGAGGAUCACCCAUGUCCUAACCAUCG [Omei A 3] (puzzle: Brourd's mod of Exclusion 4)				12.7		
CAUGUCCGAGGAUAUAUUAUGUGAAACAUGAGGAUCACCCAUGUUAUAUGAUGGAUGUAAAUAGAAGGCGGACGUG [Mat - Exclusion 5 - JL mod - D65] (puzzle: Exclusion 5)				31.6	26.3	34.5
AUUAUGUUAGGAUAUGCUUAUGGUGGAUAAUCGGAUAUGAUGCAGAAGGGACAUGAGGAUCACCCAUGUACUGU [EX4 #23] (Eterna round: R97, puzzle: Exclusion 4)	21.5	22.1				
CGGUGCUCGUGGAAACAUGAGGAUCACCCAUGUAGAGUUAGCGAGGAUAUCGGUAACACACAUCACGAGAAGGCGCGAACCUGU [Ex NG3 #6] (Eterna round: R96, puzzle: Exclusion NG 3)	31.7	20.8	12.1			
CAUCACUGCUAGGAUAUCGAGUCGGAGAAUACUUGAGAAGGAGCUACAUGAGGAUCACCCAUGUCCUCCGCGAU [Eternabot (L2) Solution 72] (Eterna round: R97, puzzle: Exclusion 6)	47.3	18.8				
GCCGAUUAAGUCAGGAUAUACCUAUGGAUACAUAGGUAGAAGGGACAUGAGGAUCACCCAUGUUCCUCUACGGC [Fiskers BMX 4 - 16] (puzzle: Brourd's mod of Exclusion 4)				13.6		
AAAGCUGCAGGAUAUGCAUGUGUGGACAUGAGGAUCACCCAUGUGAGCGUAUCAUGUCGAGCAGAAGGGCAGUAAA [Atquer] (Eterna round: R97, puzzle: Exclusion 5)	172	630				
AGUAACCGUCACGAAAGUGAUGGUUACACAAGCAUAUGUACAUGAGGAUCACCCAUGUCCUCAACUGCUCGUCUUAU [Sensor 3 - 55] (puzzle: Sensor v3, turn-off variant 2)				385	296	424
CUCGUGCAGCAAAGCUGUACGAGUACAUGAGGAUCACCCAUGUAGGAUAUGGUACGCAAAGCGUGCCAGAAGGACGUGAGUUAG [Mat - Exclusion NG 3 - Mod of JL - D95] (Eterna round: R96, puzzle: Exclusion NG 3)	171	59	37.6			
